Target: endogenous LRBA of mouse embryonic fibroblasts (mouse (endogenous in MEFs)) (UniProt Q9ESE1)
Assay: SEC

**Q.** For “endogenous LRBA of mouse embryonic fibroblasts (from UniProt Q9ESE1 1-2856) (natural protein)”, which stoichiometry N is on record?
**A.** 2
